From patent publication US20190225652A1, “GENERATION OF PEPTIDES” (Hexima Limited, priority 2015, published 2019)

B1: rOaAEP1b: recombinant Oldenlandia affinis asparaginyl endopeptidase OaAEP1b expressed in E. coli, activated (protein)
chain: MVRYLAGAVLLLVVLSVAAAVSGARDGDYLHLPSEVSRFFRPQETNDDHGEDSVGTRWAVLIAGSKGYANYRHQAGVCHAYQILKRGGLKDENIVVFMYDDIAYNESNPRPGVIINSPHGSDVYAGVPKDYTGEEVNAKNFLAAILGNKSAITGGSGKVVDSGPNDHIFIYYTDHGAAGVIGMPSKPYLYADELNDALKKKHASGTYKSLVFYLEACESGSMFEGILPEDLNIYALTSTNTTESSWCYYCPAQENPPPPEYNVCLGDLFSVAWLEDSDVQNSWYETLNQQYHHVDKRISHASHATQYGNLKLGEEGLFVYMGSNPANDNYTSLDGNALTPSSIVVNQRDADLLHLWEKFRKAPEGSARKEVAQTQIFKAMSHRVHIDSSIKLIGKLLFGIEKCTEILNAVRPAGQPLVDDWACLRSLVGTFETHCGSLSEYGMRHTRTIANICNAGISEEQMAEAASQACASIP
modifications: Oldenlandia affinis OaAEP1b
B2: rhuLEG: recombinant human legumain (R&D systems), an AEP that preferentially functions as a hydrolase (protein, UniProt Q99538 18-323, looked up)
Legumain: VPIDDPEDGGKHWVVIVAGSNGWYNYRHQADACHAYQIIHRNGIPDEQIVVMMYDDIAYSEDNPTPGIVINRPNGTDVYQGVPKDYTGEDVTPQNFLAVLRGDAEAVKGIGSGKVLKSGPQDHVFIYFTDHGSTGILVFPNEDLHVKDLNETIHYMYKHKMYRKMVFYIEACESGSMMNHLPDNINVYATTAANPRESSYACYYDEKRSTYLGDWYSVNWMEDSDVEDLTKETLHKQYHLVKSHTNTSHVMQYGNKTISTMKVMQFQGMKRKASSPVPLPPVTHLDLTPSPDVPLTIMKRKLMNTN

Legend:
[1] = tested on: rOaAEP1b, rOaAEP3, rOaAEP4 and rOaAEP5; assay: Intermolecular ligation assay with recombinant AEPs; format: biochemical, Oldenlandia affinis; conditions: target 140 μM, ligation partner GLK-biotin 700 μM, enzymes 19.7 μg mL^−1, 6 h, MALDI-MS
Experimental: Target peptides (140 μM) were incubated with a ligation partner peptide (700 μM) and a recombinant AEP (rOaAEP1b, rOaAEP3, rOaAEP4 or rOaAEP5 at 19.7 μg mL^−1 total protein) in activity buffer (50 mM sodium acetate, 50 mM NaCl, 1 mM EDTA, 0.5 μM TCEP, pH 5). The reaction was allowed to proceed for up to 22 hours at room temperature and was analysed by MALDI MS or electrospray ionisation (ESI) mass spectrometry as appropriate.
(§1) Cyclization or inter-molecular ligation of linear target peptides was monitored by MALDI or ESI MS. In both cases, the reaction mixture (5-50 μL) was de-salted using C18 zip tips (Millipore) and eluted in 4 μL 50-75% v/v acetonitrile, 0.1% v/v trifluoroacetic acid (TFA).
(§2) For MALDI MS, a saturated MALDI matrix solution (α-cyano-4-hyroxycinnamic acid, CHCA, Bruker) prepared in 95% v/v acetonitrile, 0.1% v/v TFA was diluted 1:22 such that the final matrix solution comprised 90% v/v acetonitrile, 0.1% v/v TFA and 1 mM NH4H2PO4. Eluted samples were mixed 1:4 with the MALDI matrix, spotted onto a MALDI plate and analyzed by an Ultraflex III TOF/TOF (Bruker) in positive reflector mode. Data were analyzed using the flexAnalysis program (Bruker).
(§3) For ESI MS, 96 μl of 75% v/v acetonitrile, 01% v/v TFA was added to the de-salted sample. The sample was then injected into a MicroTOF Q (Bruker) and data was collected in positive ionisation mode. The mass of ligated or cyclized product was determined by charge deconvolution using the Compass DataAnalysis program (Bruker).
To investigate the ability of recombinantly produced AEPs to perform inter-molecular ligation (as well as the intra-molecular ligation required to produce backbone-cyclized peptides), target peptides were incubated with ligation partner peptides as well as active enzyme (FIG. 11). The appearance of new linear peptides were tracked. […]

[2] = tested on: rOaAEP1b, rOaAEP3, rOaAEP4 and rOaAEP5; assay: Cyclization assay with rOaAEP1b, rOaAEP3, rOaAEP4 and rOaAEP5 (MALDI/ESI MS); format: biochemical, Oldenlandia affinis; conditions: peptides with added AEP recognition residues, 280 μM, enzymes 19.7 μg mL^−1 total protein, MS
Experimental: Linear target peptides (280 μM, unless otherwise indicated) were incubated with rOaAEP1b, rOaAEP3, rOaAEP4 or rOaAEP5 (total protein concentration as indicated in the description of figures) in activity buffer (50 mM sodium acetate, 50 mM NaCl, 1 mM ethylenediaminetetraacetic acid [EDTA], 0.5 μM Tris(2-carboxyethyl)phosphine hydrochloride [TCEP], pH 5). The reaction was allowed to proceed for up to 22 hours at room temperature and was analysed by matrix-assisted laser desorption/ionization mass spectrometry (MALDI MS), high performance liquid chromatography (HPLC) or nuclear magnetic resonance (NMR) as appropriate.
as §1, §2, §3
The ability of activated AEPs (rOaAEP1b, rOaAEP3, rOaAEP4 and rOaAEP5) to cyclize peptide substrates structurally unrelated to cyclotides was tested in the cyclization assay described in the Materials and Methods. The anti-malarial peptide R1 (Harris et al. (2009) J Biol Chem 284(14):9361-9371; Harris et al. (2005) Infect Immun 73(10):6981-6989); Bac2A, a linear derivative of the bovine peptide bactenecin (Wu and Hancock (1999) Antimicrob Agents Ch 43:1274-1276); and the anti-fungal peptide EcAMP1 (Nolde et al. (2011) J Biol Chem 286(28):25145-25153) were produced with additional AEP recognition residues and used as the substrates.
To investigate the sequence requirements for in vitro cyclization, R1 was used as a model peptide. The recognition residues added to this model peptide were sequentially trimmed to determine the minimal requirements for AEP-mediated cyclization. The N- and C-terminal recognition residues were also substituted with alternate amino acids to determine if particular classes of residues were preferred for cyclization by these recombinant AEPs. The ability of activated AEPs (rOaAEP1b, rOaAEP3, rOaAEP4 and rOaAEP5) to cyclize the R1 peptide with varied flanking sequences was then tested in the cyclization assay described in the Materials and Methods (FIG. 10; Table 3).

[3] = Protease activity against IQF peptides; format: biochemical; conditions: for P2′ substrate specificity (wt vs L31A IQF peptide): 50 μM IQF peptides, 37° C., initial velocity
Experimental: FIG. 3 is a graphical representation showing expression of active rOaAEP1b in E. coli. (A) Pooled rOaAEP1b-containing anion exchange fractions pre- and post-activation at low pH were diluted 1:14 and tested for activity against the wildtype internally quenched fluorescence (wtIQF) peptide (11 μM) [SEQ ID NO:21]. Baseline fluorescence from a no-substrate control has been subtracted and the relative fluorescence intensity (RFU) at t=90 minutes is reported. A single representative experiment of two technical replicates is shown. (B) Activated rOaAEP1b was captured by cation exchange and the final product analyzed by SDS-PAGE followed by (i) Instant blue staining and (ii) Western blotting with anti-AEP1b polyclonal rabbit serum.
FIGS. 17A and 17B are graphical representations of substrate specificity of plant and human AEPs for wt (SEQ ID NO:21) and L31A (SEQ ID NO:25) IQF peptide substrates. Initial velocity of recombinant O. affinis AEPs (˜10 μg mL^−1 total protein) (17A) and rhuLEG (1.1 μg mL^−1 total protein) (17B) against 50 μM IQF peptide substrates is shown. The assay was conducted at 37° C. The average of two technical replicates are shown and the error bars report the range.
To assay activity of recombinant AEPs (rOaAEP1b, rOaAEP3, rOaAEP4 or rOaAEP5) against both internally-quenched and other fluorescent peptides, substrate and enzyme were diluted as appropriate in activity buffer (50 mM sodium acetate, 50 mM NaCl, 1 mM EDTA, 0.5 μM TCEP, pH 5). […] The change in fluorescence intensity over time was monitored on a SpectraMax M2 (Molecular Devices) using excitation/emission wavelengths of 320/420 nm (IQF peptides) or 360/460 nm (other fluorescent peptides). […]
IQF peptides that incorporate the P1-P4 as well as the P1′-P4′ residues are, however, effectively targeted by recombinant O. affinis AEPs. These peptides contain a fluorescence donor/quencher pair, with fluorescence observed upon the spatial separation of this pair following enzymatic cleavage. […]

[4] = tested on: target peptide-linker-ubiquitin-6xHis fusion protein; assay: AEP-mediated processing of target peptides fused to ubiquitin; format: biochemical; conditions: kalata B1-ubiquitin 260 μg mL^−1, AEP 19.7 μg mL^−1 total protein, 22 h, SDS-PAGE/anti-6xHis Western blot
[5] = Protease activity against fluorogenic substrate Z-AAN-MCA; format: biochemical; conditions: enzyme ~5 μg mL^−1 total protein, Z-AAN-MCA 100 μM, 37° C., 60 minutes
Experimental: FIG. 15 is a graphical representation of the activity of recombinant O. affinis AEPs (˜5 μg mL^−1 total protein) and rhuLEG (1 μg mL^−1 total protein) over time against the fluorogenic substrate Z-AAN-MCA (100 μM). Activity is tracked at 1 minute intervals at 37° C. for 60 minutes using excitation and emission wavelengths of 360 and 460 nm respectively. A single representative experiment is shown. RFU, relative fluorescence units.
To assay activity of recombinant AEPs (rOaAEP1b, rOaAEP3, rOaAEP4 or rOaAEP5) against both internally-quenched and other fluorescent peptides, substrate and enzyme were diluted as appropriate in activity buffer (50 mM sodium acetate, 50 mM NaCl, 1 mM EDTA, 0.5 μM TCEP, pH 5). To assay activity of recombinant human legumain (rhuLEG; R&D systems) against the same substrates, the enzyme was first activated by incubation in 50 mM sodium acetate, 100 mM NaCl, pH 4 (4 μL buffer/1 μL enzyme) for 2 hours at 37° C. Substrates and activated rhuLEG were diluted in 50 mM acetate, 0.1% v/v triton X 100, 0.5 μM TCEP pH 5.5 or in 50 mM MES, 250 mM NaCl, pH 5 as required. Diluted enzyme and substrate were added to black, flat bottomed microtiter plates in a total assay volume of 100-200 μL. The change in fluorescence intensity over time was monitored on a SpectraMax M2 (Molecular Devices) using excitation/emission wavelengths of 320/420 nm (IQF peptides) or 360/460 nm (other fluorescent peptides).
AEP activity has traditionally been tracked by monitoring cleavage of the fluorescent substrate Z-AAN-MCA (where Z is carboxybenzyl; MCA is 7-amido-4-methylcoumarin) [Saska et al. (2007) supra; Rotari et al. (2001) Biol. Chem. 382:953-959]. Cleavage C-terminal to the Asn liberates the fluorophore which then fluoresces to report substrate cleavage. […] They are Ac-YVAD-CHO, which is routinely used to identify AEP activity (Hatsugai et al. (2004) Science 305(5685): 855-858) and Ac-STRN-CHO, which represents the P1-P4 residues of the C-terminal kB1 cleavage site. These traditional routes of identifying AEP activity will therefore likely be ineffective for identification of AEPs with cyclizing ability.

| Molecule | inter-molecular ligation, C-terminal labelling [1] | cyclization of linear precursor peptide by recombinant AEPs [2] | P2′ substrate specificity (wt vs L31A IQF peptide) [3] | activity against IQF peptide following low pH activation ([3]; wt IQF peptide 11 μM, fractions diluted 1:14, 90 minutes, pre- vs post-activation) | proportion of fusion protein enzymatically processed (loss of precursor) [4] | activity against Z-AAN-MCA [5] |
| --- | --- | --- | --- | --- | --- | --- |
| GKVFAEFLPLFSKFGSRMHILKNGL (Target peptide; R1) [SEQ ID NO:83, R1 peptide derivative] | created a new linear peptide that incorporated a C-terminal biotin | poor substrate for backbone cyclization |  |  |  |  |
| B1 |  |  | preference for a bulky hydrophobic residue such as Leu at the P2′ position | dramatically increased | the bulk of the precursor was being enzymatically processed | nor rOaAEP1b, rOaAEP3, rOaAEP4 or rOaAEP5 (FIG. 15) had detectable activity |
| B2 |  |  | not shared |  |  |  |
